Experimental data as given in the supplement of paper PMC10598134.
± gives the standard deviation.

Key:
[1] = collision cross section of unmodified peptide (TIMS, N2, iRT-aligned); higher = larger / more extended gas-phase ion
Procedure: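 Unmodified synthetic counterpart peptides (ProteomeTools / JPT), analysed by nanoLC-TIMS-QTOF (dda-PASEF). 1/K0 was aligned run-wise to spiked iRT peptides and converted to CCS in N2 (Mason-Schamp). Values are the mean of 1-3 technical replicates for the most abundant feature at each charge state. The same unmodified peptide is repeated across rows and is averaged.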

[2] = collision cross section of modified peptide (TIMS, N2, iRT-aligned); higher = larger / more extended gas-phase ion
Method in brief: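 Collision cross section was derived from the Mason-Schamp equation. Each value averages 1–3 technical replicates of the most abundant feature per charge state, measured on a timsTOF Pro/HT in dda-PASEF mode (nitrogen, ~2.4 mbar) after a 120-min nanoflow C18 gradient at 60 °C. Synthetic peptide pools (~100 fmol/µL in 2% acetonitrile/0.1% formic acid, iRT standard spiked 1:40) were identified with MaxQuant, and 1/K0 was calibrated with three reference ions and aligned run-wise to the median iRT peptide deviation.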

[3] = charge state: 2, modification: Glutarylation
[4] = charge state: 3, modification: Glutarylation
[5] = charge state: 2, modification: Dimethyl (K)
[6] = charge state: 3, modification: Dimethyl (K)
[7] = charge state: 2, modification: hydroxyisobutyryl
[8] = charge state: 2, modification: Methyl (K)
[9] = charge state: 3, modification: Methyl (K)
[10] = charge state: 3, modification: Trimethyl (K)
[11] = charge state: 2, modification: Butyryl
[12] = charge state: 3, modification: Butyryl
[13] = charge state: 2, modification: Citrullination (R)
[14] = charge state: 3, modification: Citrullination (R)
[15] = charge state: 2, modification: GlyGly (K)
[16] = charge state: 3, modification: GlyGly (K)
[17] = charge state: 2, modification: Malonyl
[18] = charge state: 2, modification: Phospho (Y)
[19] = charge state: 2, modification: Crotonyl
[20] = charge state: 3, modification: Crotonyl

## VGTASVLQPVKK
[1]; charge state: 2
  collision cross section: 400.02 ± 0.9 Å²
[1]; charge state: 3
  collision cross section: 461.91 ± 3 Å²

## QGNAVTLGDYYQGR
[1]; charge state: 2
  collision cross section: 415.78 ± 0.66 Å²

## RGFGFGGFAISAGK
[1]; charge state: 2
  collision cross section: 395.08 ± 0.89 Å²
[1]; charge state: 3
  collision cross section: 486.34 ± 2.6 Å²

## VYIASSSGSTAIKK
[1]; charge state: 2
  collision cross section: 426.35 ± 1.9 Å²
[1]; charge state: 3
  collision cross section: 494.89 ± 3.4 Å²

## GRGGAESHTFK
[1]; charge state: 2
  collision cross section: 353.4 ± 0.58 Å²
[1]; charge state: 3
  collision cross section: 440.9 ± 5.6 Å²

## GATVTRGVPPPPTVR
[1]; charge state: 2
  collision cross section: 421.15 Å²
[1]; charge state: 3
  collision cross section: 511.54 ± 2 Å²

## IQNGAQGIRFIYTR
[1]; charge state: 3
  collision cross section: 511.04 ± 0.58 Å²

## PGGEGPQCEKTTDVK
[1]; charge state: 2
  collision cross section: 411.04 ± 2 Å²
[1]; charge state: 3
  collision cross section: 465.58 ± 3.8 Å²

## RGVGAGAIAK
[1]; charge state: 2
  collision cross section: 327.01 ± 0.73 Å²

## FGSRGGPGGGFR
[1]; charge state: 2
  collision cross section: 358.01 ± 0.11 Å²
[1]; charge state: 3
  collision cross section: 437.12 ± 3.8 Å²

## TSYAQHQQVR
[1]; charge state: 2
  collision cross section: 367.57 ± 0.48 Å²
[1]; charge state: 3
  collision cross section: 444.63 ± 0.86 Å²

## HLRGHGPQPPLR
[1]; charge state: 2
  collision cross section: 396.64 Å²
[1]; charge state: 3
  collision cross section: 492.83 ± 0.94 Å²

## VDATADYICK
[1]; charge state: 2
  collision cross section: 353.92 ± 0.79 Å²

## SGNLTEDDKHNNAK
[1]; charge state: 2
  collision cross section: 412.58 ± 1.5 Å²
[1]; charge state: 3
  collision cross section: 490.18 ± 3.5 Å²

## AVAITQSPSSVR
[1]; charge state: 2
  collision cross section: 368.2 ± 0.14 Å²

## GSELQNYFTK
[1]; charge state: 2
  collision cross section: 364.76 ± 0.54 Å²

## FEGAIYR
[1]; charge state: 2
  collision cross section: 317.08 ± 0.15 Å²

## LGGDLGTYVINK
[1]; charge state: 2
  collision cross section: 369.28 ± 0.16 Å²

## GGQGPPGPQGPIGYPGPR
[1]; charge state: 2
  collision cross section: 419.74 ± 1 Å²
[1]; charge state: 3
  collision cross section: 520.51 ± 0.87 Å²

## SLEEEGAAHSGKR
[1]; charge state: 2
  collision cross section: 399.57 ± 1.8 Å²
[1]; charge state: 3
  collision cross section: 472.78 ± 3.7 Å²

## YSSNLGNFNYEQRGAFR
[1]; charge state: 3
  collision cross section: 529.47 ± 0.012 Å²

## SISQSISGQK
[1]; charge state: 2
  collision cross section: 337.94 ± 0.14 Å²

## LAEQEAHYAVR
[1]; charge state: 2
  collision cross section: 394.57 ± 1.1 Å²
[1]; charge state: 3
  collision cross section: 471.99 ± 1.1 Å²

## MFLSFPTTK
[1]; charge state: 2
  collision cross section: 348.96 ± 0.14 Å²

## VTGGIFSVTK
[1]; charge state: 2
  collision cross section: 335.98 ± 0.58 Å²

## ISALQGKLSK
[1]; charge state: 2
  collision cross section: 353.47 ± 1.4 Å²
[1]; charge state: 3
  collision cross section: 435.93 ± 5.2 Å²

## VILENIASHEPR
[1]; charge state: 2
  collision cross section: 417.03 ± 1.4 Å²
[1]; charge state: 3
  collision cross section: 473.55 ± 0.22 Å²

## LEENHYNTYISK
[1]; charge state: 2
  collision cross section: 419.55 ± 1 Å²
[1]; charge state: 3
  collision cross section: 465.19 ± 1.2 Å²

## AVSILPLLGHGVPRLPPGR
[1]; charge state: 3
  collision cross section: 563.87 ± 2.3 Å²

## SITHSTVGSKGEK [_SITHSTVGSK(Gluratylation)GEK_]
[2]; [3]
  collision cross section: 400.44 ± 2.1 Å²
[2]; [4]
  collision cross section: 444.81 ± 2 Å²

## VYIASSSGSTAIKK [_VYIASSSGSTAIK(Dimethyl (K))K_]
[2]; [5]
  collision cross section: 434.74 ± 1.3 Å²
[2]; [6]
  collision cross section: 497.25 ± 0.75 Å²

## GGPGSTLSFVGKR [_GGPGSTLSFVGK(hydroxyisobutyryl)R_]
[2]; [7]
  collision cross section: 388.57 ± 0.81 Å²

## DDSFLGKLGGTLAR [_DDSFLGK(Methyl (K))LGGTLAR_]
[2]; [8]
  collision cross section: 408.16 ± 0.81 Å²
[2]; [9]
  collision cross section: 476.22 ± 3.5 Å²

## ISSNFSSIIAEKLR [_ISSNFSSIIAEK(Trimethyl (K))LR_]
[2]; [10]
  collision cross section: 499.26 ± 8.7 Å²

## VSPASSVDSNIPSSQGYKK [_VSPASSVDSNIPSSQGYK(Butyryl)K_]
[2]; [11]
  collision cross section: 463.23 ± 2.7 Å²
[2]; [12]
  collision cross section: 559.88 ± 1.1 Å²

## SVSSSSYR [_SVSSSSY(Nitro (Y))R_]
[2]; charge state: 2, modification: Nitro (Y)
  collision cross section: 311.12 ± 0.16 Å²

## SEASSEFAKK [_SEASSEFAK(Butyryl)K_]
[2]; [11]
  collision cross section: 356.58 ± 1.8 Å²

## GFALVGVGSEASSKK [_GFALVGVGSEASSK(hydroxyisobutyryl)K_]
[2]; [7]
  collision cross section: 419.49 ± 2.2 Å²
[2]; charge state: 3, modification: hydroxyisobutyryl
  collision cross section: 502.54 ± 2.1 Å²

## ASAISIKLGSSK [_ASAISIK(Dimethyl (K))LGSSK_]
[2]; [5]
  collision cross section: 373.07 ± 0.36 Å²
[2]; [6]
  collision cross section: 447.62 Å²

## VEPGSLESSPGLGRGR [_VEPGSLESSPGLGR(Citrullination (R))GR_]
[2]; [13]
  collision cross section: 418.2 ± 0.21 Å²
[2]; [14]
  collision cross section: 495.92 ± 3.1 Å²

## LLFSNTAAQKLR [_LLFSNTAAQK(Dimethyl (K))LR_]
[2]; [5]
  collision cross section: 419.08 ± 0.75 Å²
[2]; [6]
  collision cross section: 473.77 ± 2.6 Å²

## SSFAYKDQNENR [_SSFAYK(GlyGly (K))DQNENR_]
[2]; [15]
  collision cross section: 412.56 ± 1.4 Å²
[2]; [16]
  collision cross section: 465.62 ± 2 Å²

## DNNNSNNRGSYNR [_DNNNSNNR(Citrullination (R))GSYNR_]
[2]; [14]
  collision cross section: 460.73 ± 2.9 Å²

## RLPTTGYLVYR [_R(Methyl (R))LPTTGYLVYR_]
[2]; charge state: 2, modification: Methyl (R)
  collision cross section: 391.98 Å²
[2]; charge state: 3, modification: Methyl (R)
  collision cross section: 476.6 ± 3.2 Å²

## ALLQAKASGK [_ALLQAK(Gluratylation)ASGK_]
[2]; [3]
  collision cross section: 353.63 ± 0.71 Å²

## VNIGQGSHPQKVK [_VNIGQGSHPQK(Malonyl)VK_]
[2]; [17]
  collision cross section: 424.04 ± 0.57 Å²

## VGEFSGANKEK [_VGEFSGANK(Butyryl)EK_]
[2]; [11]
  collision cross section: 369.78 ± 1.3 Å²

## PANEKATDDYHYEK [_PANEK(Succinyl)ATDDYHYEK_]
[2]; charge state: 2, modification: Succinyl
  collision cross section: 446.9 ± 1.1 Å²
[2]; charge state: 3, modification: Succinyl
  collision cross section: 500.9 ± 1.6 Å²

## GEYFGEK [_GEY(Phospho (Y))FGEK_]
[2]; [18]
  collision cross section: 321.93 ± 0.65 Å²

## LTEKELAEAASK [_LTEK(Gluratylation)ELAEAASK_]
[2]; [3]
  collision cross section: 395.13 ± 2.6 Å²
[2]; [4]
  collision cross section: 453.47 ± 1.2 Å²

## GADFLVTEVENGGSLGSKK [_GADFLVTEVENGGSLGSK(Butyryl)K_]
[2]; [11]
  collision cross section: 476.08 ± 1.1 Å²
[2]; [12]
  collision cross section: 551.35 Å²

## VFIGNLNTLVVKKK [_VFIGNLNTLVVK(Formyl)KK_]
[2]; charge state: 3, modification: Formyl
  collision cross section: 499.94 Å²

## GPPPSYGGSSR [_GPPPSY(Phospho (Y))GGSSR_]
[2]; [18]
  collision cross section: 343.35 ± 0.65 Å²

## LQDVSGQLSSSKK [_LQDVSGQLSSSK(Crotonyl)K_]
[2]; [19]
  collision cross section: 402.23 ± 0.9 Å²
[2]; [20]
  collision cross section: 469.03 ± 3.7 Å²

## ITLSKHQNVQLPR [_ITLSK(Malonyl)HQNVQLPR_]
[2]; charge state: 3, modification: Malonyl
  collision cross section: 478.94 ± 1.8 Å²

## PGSPGPPGSPGPR [_PGSP(Hydroxyproline)GPPGSPGPR_]
[2]; charge state: 3, modification: Hydroxyproline
  collision cross section: 422.04 ± 4.8 Å²

## LQLEIDQKK [_LQLEIDQK(Formyl)K_]
[2]; charge state: 2, modification: Formyl
  collision cross section: 362.42 ± 1 Å²

## SKHLQEQLNELK [_SK(Methyl (K))HLQEQLNELK_]
[2]; [8]
  collision cross section: 411.32 ± 1.9 Å²
[2]; [9]
  collision cross section: 492.52 ± 1.8 Å²

## IGSLDNITHVPGGGNK [_IGS(HexNAc (ST))LDNITHVPGGGNK_]
[2]; charge state: 3, modification: HexNAc (ST)
  collision cross section: 493.45 ± 0.96 Å²

## LQDVSGQLSSSKK [_LQDVSGQLSSSK(Malonyl)K_]
[2]; [17]
  collision cross section: 397.79 ± 0.61 Å²

## FLQEFYQDDELGKK [_FLQEFYQDDELGK(GlyGly (K))K_]
[2]; [15]
  collision cross section: 460.97 ± 1.6 Å²
[2]; [16]
  collision cross section: 512.67 ± 1.3 Å²

## SGRGGNFGFGDSR [_SGR(Citrullination (R))GGNFGFGDSR_]
[2]; [13]
  collision cross section: 379.38 ± 0.54 Å²

## VSPASSVDSNIPSSQGYKK [_VSPASSVDSNIPSSQGYK(Crotonyl)K_]
[2]; [19]
  collision cross section: 464.78 ± 0.82 Å²
[2]; [20]
  collision cross section: 560.75 ± 1.6 Å²

## AYDATHLVK [_AY(Phospho (Y))DATHLVK_]
[2]; [18]
  collision cross section: 354.67 ± 0.75 Å²
[2]; charge state: 3, modification: Phospho (Y)
  collision cross section: 427.71 Å²

## SSFAYKDQNENR [_SSFAYK(Trimethyl (K))DQNENR_]
[2]; charge state: 2, modification: Trimethyl (K)
  collision cross section: 417.36 ± 0.75 Å²
[2]; [10]
  collision cross section: 458.31 ± 1.5 Å²
